Reference: PMC4245398

Molecular target: vimentin (UniProt P08670)
Test: co-immunoprecipitation, FAK-FLAG and endogenous vimentin
Conditions: reference: WT FAK-FLAG; sites Y397

binding against the reference: weaker
Substance: focal adhesion kinase (FAK) (from UniProt Q05397) Y397F FAK-FLAG
